Experimental data taken from the supplement of paper PMC10065799, “High-throughput profiling of sequence recognition by tyrosine kinases and SH2 domains using bacterial peptide display” (eLife, 2023).

Key:
AncSZ = assay: phosphorylation enrichment, bacterial display (enrichment ratio); higher = better substrate or ligand; peptides without Tyr show the background
EPHB1 = EPHB1 (UniProt P54762); assay: as above
EPHB2 = EPHB2 (UniProt P29323); assay: as above
FGFR1 = FGFR1 (UniProt P11362); assay: as above
Sequence of FGFR1 (P11362 whole entry, looked up): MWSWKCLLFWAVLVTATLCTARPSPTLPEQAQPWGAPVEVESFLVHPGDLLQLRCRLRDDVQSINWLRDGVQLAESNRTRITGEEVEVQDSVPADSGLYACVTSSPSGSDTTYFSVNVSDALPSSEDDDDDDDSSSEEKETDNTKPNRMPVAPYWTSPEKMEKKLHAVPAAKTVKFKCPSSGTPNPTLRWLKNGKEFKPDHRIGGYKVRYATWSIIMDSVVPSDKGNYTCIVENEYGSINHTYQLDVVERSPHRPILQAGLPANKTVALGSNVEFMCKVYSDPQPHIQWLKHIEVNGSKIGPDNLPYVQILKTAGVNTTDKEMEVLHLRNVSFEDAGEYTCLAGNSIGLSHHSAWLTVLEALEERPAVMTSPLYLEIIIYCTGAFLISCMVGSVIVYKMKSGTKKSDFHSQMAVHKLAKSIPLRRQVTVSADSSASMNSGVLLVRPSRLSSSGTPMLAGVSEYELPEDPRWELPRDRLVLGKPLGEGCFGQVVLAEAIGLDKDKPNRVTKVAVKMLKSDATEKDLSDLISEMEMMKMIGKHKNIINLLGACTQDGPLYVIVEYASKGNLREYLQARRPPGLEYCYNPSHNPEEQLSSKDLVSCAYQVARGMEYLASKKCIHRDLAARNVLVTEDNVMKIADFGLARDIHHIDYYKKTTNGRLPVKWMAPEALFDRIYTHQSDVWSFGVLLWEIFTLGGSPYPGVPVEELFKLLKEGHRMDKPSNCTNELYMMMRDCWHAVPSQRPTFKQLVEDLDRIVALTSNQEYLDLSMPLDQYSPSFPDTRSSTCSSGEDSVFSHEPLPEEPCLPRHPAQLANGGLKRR

FGFR3 = FGFR3 (UniProt P22607); assay: as above
Fer (mouse) = assay: as above
Fes = Fes (UniProt P07332); assay: as above
Fyn = Fyn (UniProt P06241); assay: as above
Sequence of Fyn (P06241 whole entry, looked up): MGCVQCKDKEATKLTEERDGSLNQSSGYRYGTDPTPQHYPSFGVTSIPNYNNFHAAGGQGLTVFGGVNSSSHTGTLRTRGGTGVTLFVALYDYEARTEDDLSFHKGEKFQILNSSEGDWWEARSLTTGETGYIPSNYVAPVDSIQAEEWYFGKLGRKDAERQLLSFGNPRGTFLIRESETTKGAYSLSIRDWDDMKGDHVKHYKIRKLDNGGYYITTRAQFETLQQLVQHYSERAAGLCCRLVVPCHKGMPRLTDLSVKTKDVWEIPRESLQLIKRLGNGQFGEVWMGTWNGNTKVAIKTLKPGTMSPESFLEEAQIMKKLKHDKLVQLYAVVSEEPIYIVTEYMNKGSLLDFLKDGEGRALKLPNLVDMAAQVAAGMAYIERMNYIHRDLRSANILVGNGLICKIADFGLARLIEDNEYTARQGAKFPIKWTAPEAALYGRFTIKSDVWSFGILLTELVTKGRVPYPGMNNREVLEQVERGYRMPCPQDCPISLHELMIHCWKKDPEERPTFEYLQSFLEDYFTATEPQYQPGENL

Hck = Hck (UniProt P08631); assay: as above
Jak2 = Jak2 (UniProt O60674); assay: as above
MERTK = MERTK (UniProt Q12866); assay: as above
Sequence of MERTK (Q12866 whole entry, looked up): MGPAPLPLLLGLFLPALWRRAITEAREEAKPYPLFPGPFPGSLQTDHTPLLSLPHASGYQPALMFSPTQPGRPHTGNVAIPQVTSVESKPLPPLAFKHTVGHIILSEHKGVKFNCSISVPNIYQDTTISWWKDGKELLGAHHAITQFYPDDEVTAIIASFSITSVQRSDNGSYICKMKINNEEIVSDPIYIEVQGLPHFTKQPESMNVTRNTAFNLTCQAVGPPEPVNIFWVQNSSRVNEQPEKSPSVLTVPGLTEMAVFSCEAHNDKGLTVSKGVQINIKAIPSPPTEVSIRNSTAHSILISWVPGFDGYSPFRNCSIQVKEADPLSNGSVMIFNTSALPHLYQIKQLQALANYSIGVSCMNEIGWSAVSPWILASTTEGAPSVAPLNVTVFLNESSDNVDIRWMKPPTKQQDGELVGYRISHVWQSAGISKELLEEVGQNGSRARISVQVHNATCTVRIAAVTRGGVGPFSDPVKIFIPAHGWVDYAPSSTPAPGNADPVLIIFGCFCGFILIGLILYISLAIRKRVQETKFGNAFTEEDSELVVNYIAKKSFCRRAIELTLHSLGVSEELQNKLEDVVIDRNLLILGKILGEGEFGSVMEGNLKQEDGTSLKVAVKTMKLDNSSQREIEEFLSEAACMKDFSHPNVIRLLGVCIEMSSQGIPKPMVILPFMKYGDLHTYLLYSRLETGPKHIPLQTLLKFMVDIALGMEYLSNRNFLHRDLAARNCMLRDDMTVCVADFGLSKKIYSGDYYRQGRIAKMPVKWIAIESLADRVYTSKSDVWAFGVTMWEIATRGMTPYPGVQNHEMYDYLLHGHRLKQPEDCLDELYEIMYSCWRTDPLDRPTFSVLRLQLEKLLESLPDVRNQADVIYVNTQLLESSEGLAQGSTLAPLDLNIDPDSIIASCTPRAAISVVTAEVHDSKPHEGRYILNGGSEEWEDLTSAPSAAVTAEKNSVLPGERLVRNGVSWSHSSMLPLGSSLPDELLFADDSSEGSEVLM

c-Abl (mouse) = assay: as above
c-Src = assay: as above
Grb2 SH2 = Grb2 SH2 (UniProt P62993); assay: SH2 binding enrichment of the phosphorylated peptide, bacterial display (enrichment ratio); higher = better substrate or ligand; peptides without Tyr show the background
Sequence of Grb2 SH2 (P62993 whole entry, looked up): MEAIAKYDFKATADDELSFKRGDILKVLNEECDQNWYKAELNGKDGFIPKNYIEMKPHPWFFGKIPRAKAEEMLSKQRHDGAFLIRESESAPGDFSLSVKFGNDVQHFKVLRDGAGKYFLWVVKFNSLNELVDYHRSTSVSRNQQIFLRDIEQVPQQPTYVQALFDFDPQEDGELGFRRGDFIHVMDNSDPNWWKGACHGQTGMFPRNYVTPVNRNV

SHP2-C SH2 = assay: as above
c-Src SH2 = assay: as above
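For SH2 binding enrichment of the phosphorylated peptide, bacterial display in this document: peptide library displayed on the E. coli surface as eCPX fusions, selected cells deep-sequenced, score is each peptide's frequency after selection divided by its frequency in the input.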
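For phosphorylation enrichment, bacterial display in this document: 11-residue human phosphosite peptides and single-mutation variants displayed on the E. coli surface, counted by deep sequencing, each peptide's frequency after selection divided by its frequency in the unselected input library; frequency after pTyr selection over input frequency; kinase dosed for 20-30% of maximal phosphorylation in three min.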

Sequence of EPHB2 (P29323 whole entry, looked up): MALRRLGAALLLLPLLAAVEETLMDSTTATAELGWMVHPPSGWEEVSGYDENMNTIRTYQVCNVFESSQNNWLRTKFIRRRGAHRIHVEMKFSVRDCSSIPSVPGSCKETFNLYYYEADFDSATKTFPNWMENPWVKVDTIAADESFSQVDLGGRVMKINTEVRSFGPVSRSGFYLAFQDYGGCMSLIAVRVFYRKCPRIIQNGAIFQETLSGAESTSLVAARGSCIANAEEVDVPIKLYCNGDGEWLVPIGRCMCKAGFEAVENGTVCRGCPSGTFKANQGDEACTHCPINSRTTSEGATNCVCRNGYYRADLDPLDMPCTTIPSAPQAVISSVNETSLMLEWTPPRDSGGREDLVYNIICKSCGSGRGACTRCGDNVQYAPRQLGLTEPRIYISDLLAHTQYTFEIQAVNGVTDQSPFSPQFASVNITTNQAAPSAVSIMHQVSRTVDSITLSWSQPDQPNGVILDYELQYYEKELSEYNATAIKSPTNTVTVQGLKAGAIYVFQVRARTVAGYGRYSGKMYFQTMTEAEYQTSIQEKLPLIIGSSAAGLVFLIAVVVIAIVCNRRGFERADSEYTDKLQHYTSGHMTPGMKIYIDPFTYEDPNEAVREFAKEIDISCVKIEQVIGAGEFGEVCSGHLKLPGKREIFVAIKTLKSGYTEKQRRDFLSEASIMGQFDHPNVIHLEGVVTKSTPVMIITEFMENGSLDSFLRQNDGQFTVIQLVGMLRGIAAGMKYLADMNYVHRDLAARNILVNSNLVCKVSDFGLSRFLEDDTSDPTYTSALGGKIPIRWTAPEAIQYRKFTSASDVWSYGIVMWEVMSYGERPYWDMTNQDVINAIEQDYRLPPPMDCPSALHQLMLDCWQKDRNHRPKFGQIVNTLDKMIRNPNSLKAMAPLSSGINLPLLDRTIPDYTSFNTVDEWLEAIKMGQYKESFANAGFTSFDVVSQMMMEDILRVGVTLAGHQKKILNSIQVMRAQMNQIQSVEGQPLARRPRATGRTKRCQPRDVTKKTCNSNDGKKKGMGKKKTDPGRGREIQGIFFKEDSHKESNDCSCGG
Sequence of EPHB1 (P54762 whole entry, looked up): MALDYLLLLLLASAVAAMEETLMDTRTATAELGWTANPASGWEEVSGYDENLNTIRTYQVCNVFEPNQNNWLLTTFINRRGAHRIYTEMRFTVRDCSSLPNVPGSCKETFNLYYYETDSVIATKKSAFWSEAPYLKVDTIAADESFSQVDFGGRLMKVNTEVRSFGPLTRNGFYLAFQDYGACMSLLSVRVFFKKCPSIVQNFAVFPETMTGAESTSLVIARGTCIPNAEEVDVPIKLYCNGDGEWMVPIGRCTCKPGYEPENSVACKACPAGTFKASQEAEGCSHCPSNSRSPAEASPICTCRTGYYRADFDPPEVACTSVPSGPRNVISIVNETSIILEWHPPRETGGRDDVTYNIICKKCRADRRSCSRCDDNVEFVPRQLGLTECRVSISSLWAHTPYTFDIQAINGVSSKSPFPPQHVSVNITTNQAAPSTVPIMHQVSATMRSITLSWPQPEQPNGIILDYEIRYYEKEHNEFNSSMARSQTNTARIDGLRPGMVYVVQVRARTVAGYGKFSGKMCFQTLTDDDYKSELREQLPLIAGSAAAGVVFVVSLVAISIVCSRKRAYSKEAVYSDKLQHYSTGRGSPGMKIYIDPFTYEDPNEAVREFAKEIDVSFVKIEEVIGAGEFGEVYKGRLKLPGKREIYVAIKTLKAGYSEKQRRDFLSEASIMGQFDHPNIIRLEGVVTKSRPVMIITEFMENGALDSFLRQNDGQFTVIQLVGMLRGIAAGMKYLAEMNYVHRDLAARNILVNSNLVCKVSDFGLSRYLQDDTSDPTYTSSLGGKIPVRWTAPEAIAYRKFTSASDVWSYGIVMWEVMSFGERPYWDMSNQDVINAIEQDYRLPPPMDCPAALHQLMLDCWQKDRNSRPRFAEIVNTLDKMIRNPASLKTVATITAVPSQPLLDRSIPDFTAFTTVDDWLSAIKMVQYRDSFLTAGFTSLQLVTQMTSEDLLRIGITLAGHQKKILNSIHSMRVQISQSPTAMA

Sequence | phosphorylation enrichment (AncSZ) | phosphorylation enrichment (EPHB1) | phosphorylation enrichment (EPHB2) | phosphorylation enrichment (FGFR1) | phosphorylation enrichment (FGFR3) | phosphorylation enrichment (Fer (mouse)) | phosphorylation enrichment (Fes) | phosphorylation enrichment (Fyn) | phosphorylation enrichment (Hck) | phosphorylation enrichment (Jak2) | phosphorylation enrichment (MERTK) | phosphorylation enrichment (c-Abl (mouse)) | phosphorylation enrichment (c-Src) | SH2 binding enrichment (Grb2 SH2) | SH2 binding enrichment (SHP2-C SH2) | SH2 binding enrichment (c-Src SH2)
RGERPYGGGGG [FUS_Y526_R522G] | 0.487 | 0.185 | 0.418 | 0.419 | 0.377 | 0.337 | 0.643 | 0.474 | 0.444 | 0.65 | 0.48 | 0.397 | 0.415 | 1.24 | 0.673 | 0.661
ANNEYYFRVCA | 1.4 | 0.895 | 0.759 | 1.89 | 1.94 | 0.469 | 1.4 | 0.471 | 0.657 | 1.53 | 0.439 | 1.08 | 0.526 | 0.646 | 0.461 | 0.402
CTAIHYNFMCN [TP53_Y234_T231A_YF] | 0.814 | 0.622 | 0.526 | 0.598 | 0.614 | 0.461 | 0.909 | 0.442 | 0.597 | 0.863 | 0.38 | 0.735 | 0.525 | 1.33 | 1.73 | 2.01
MDNQEYKDAYK [BRDT_Y331] | 0.932 | 0.546 | 0.402 | 0.485 | 0.652 | 0.456 | 1.12 | 0.417 | 0.474 | 0.901 | 0.445 | 0.677 | 0.368 | 0.814 | 1.05 | 0.499
ITGNGYYFRVF [MYBPC3_Y1135_I1131T] | 1.04 | 0.561 | 0.589 | 0.41 | 0.72 | 0.488 | 1.08 | 0.384 | 0.385 | 0.936 | 0.294 | 0.701 | 0.301 | 0.665 | 0.799 | 0.475
GCAGKYIAMVM [CYP19A1_Y441] | 1 | 0.548 | 0.474 | 0.44 | 0.702 | 0.513 | 1.07 | 0.461 | 0.439 | 0.889 | 0.569 | 0.712 | 0.414 | 0.875 | 0.56 | 0.603
PQAVTYAKVKH [LILRB4_Y360] | 0.405 | 0.421 | 0.286 | 0.398 | 0.334 | 0.424 | 0.515 | 0.294 | 0.509 | 0.577 | 0.339 | 0.573 | 0.708 | 0.759 | 82.1 | 2.6
PLDEEYFTLQI [TP53_Y327_G325E] | 2.96 | 1.02 | 0.888 | 4.65 | 4.54 | 0.691 | 2.25 | 1.91 | 1.2 | 2.57 | 0.941 | 1.13 | 2.69 | 0.891 | 1.12 | 0.551
FRRITYHNWRH [PDE6B_Y556_YF] | 0.785 | 0.309 | 0.515 | 0.432 | 0.458 | 0.571 | 0.635 | 0.593 | 0.527 | 0.627 | 0.518 | 0.577 | 0.535 | 0.475 | 0.456 | 0.399
YQGGTYSKAST [FGG_Y380] | 0.867 | 0.33 | 0.419 | 0.423 | 0.43 | 0.387 | 0.526 | 0.449 | 0.424 | 0.373 | 0.43 | 0.388 | 0.424 | 0.846 | 0.557 | 0.716
SFLFHYADDSF [RAB3C_Y50_R49H] | 0.905 | 0.498 | 0.549 | 0.438 | 0.671 | 0.465 | 1.12 | 0.476 | 0.399 | 0.958 | 0.412 | 0.718 | 0.466 | 1.09 | 1.08 | 1.55
SISLKYEGRVF [ABL1_Y167_R166K_YF] | 1.05 | 0.655 | 0.609 | 0.482 | 0.771 | 0.565 | 1.31 | 0.477 | 0.553 | 1.13 | 0.382 | 0.661 | 0.398 | 0.86 | 0.987 | 0.489
VGTKRYMALEV [ACVRL1_Y375_P378L] | 0.691 | 0.549 | 0.451 | 0.472 | 0.541 | 0.418 | 0.75 | 0.429 | 0.458 | 0.557 | 0.448 | 0.709 | 0.486 | 0.977 | 0.805 | 0.813
EQYELYCEMGS [CBL_Y371] | 3.8 | 7.29 | 8.68 | 4.55 | 4.12 | 3.7 | 1.61 | 4.26 | 5.35 | 1.37 | 5.03 | 1.08 | 4.14 | 0.89 | 0.776 | 0.629
KYVVVYFRETD [IL17RB_Y447_I451T] | 1.36 | 0.757 | 0.554 | 0.459 | 0.708 | 0.564 | 1.34 | 0.43 | 0.579 | 1.27 | 0.445 | 0.762 | 0.491 | 2.28 | 6.88 | 1.7
FVSLIYTNFEA [GSTP1_Y109_I105V_YF] | 1.78 | 1.13 | 0.91 | 0.962 | 1.05 | 3.18 | 1.46 | 5.96 | 3.31 | 1.18 | 5.37 | 2.22 | 5.94 | 1.35 | 1.15 | 0.8
SWKRRYFLLWA [APBB1IP_Y331_R335W] | 0.686 | 0.443 | 0.5 | 0.479 | 0.545 | 0.433 | 0.591 | 0.576 | 0.497 | 0.571 | 0.59 | 0.478 | 0.661 | 0.684 | 0.646 | 0.428

Sequence | phosphorylation enrichment (AncSZ) | phosphorylation enrichment (EPHB1) | phosphorylation enrichment (EPHB2) | phosphorylation enrichment (FGFR1) | phosphorylation enrichment (FGFR3) | phosphorylation enrichment (Fer (mouse)) | phosphorylation enrichment (Fes) | phosphorylation enrichment (Fyn) | phosphorylation enrichment (Hck) | phosphorylation enrichment (Jak2) | phosphorylation enrichment (MERTK) | phosphorylation enrichment (c-Abl (mouse)) | phosphorylation enrichment (c-Src) | SH2 binding enrichment (Grb2 SH2) | SH2 binding enrichment (SHP2-C SH2) | SH2 binding enrichment (c-Src SH2)
SDFFAYSPVQE [H6PD_Y449_R453Q_YF] | 1.44 | 0.783 | 0.686 | 0.577 | 0.807 | 1.13 | 1.32 | 0.489 | 0.647 | 1.36 | 0.645 | 0.922 | 0.611 | 0.704 | 0.639 | 1.83
EQKKFYNAMKN [SCN5A_Y1495_K1500N_YF] | 0.458 | 0.297 | 0.33 | 0.366 | 0.427 | 0.451 | 0.43 | 0.367 | 0.388 | 0.41 | 0.458 | 0.446 | 0.409 | 0.751 | 0.527 | 0.381
TFGVVYKARNK [CDK2_Y19_YF] | 0.928 | 0.439 | 0.518 | 0.587 | 0.694 | 0.481 | 0.917 | 0.422 | 0.39 | 0.805 | 0.321 | 0.565 | 0.346 | 0.801 | 0.671 | 0.495
IDAICYFRMEN [NPHS2_Y194_YF] | 1.26 | 0.692 | 0.623 | 0.656 | 0.949 | 0.484 | 1.59 | 0.572 | 0.612 | 2.44 | 0.556 | 0.974 | 0.613 | 0.673 | 0.89 | 0.703
KNDSKYVVKGN [KIT_Y823_N822K] | 0.52 | 0.326 | 0.317 | 0.382 | 0.444 | 0.258 | 0.56 | 0.314 | 0.379 | 0.677 | 0.316 | 0.531 | 0.473 | 0.999 | 0.653 | 0.572
SIKDKHVTALY [KCNH2_Y611_Y611H] | 0.587 | 0.387 | 0.405 | 0.408 | 0.405 | 0.388 | 0.61 | 0.409 | 0.397 | 0.43 | 0.345 | 0.529 | 0.44 | 0.899 | 0.572 | 0.497
LDTFIYDAAVL [GRIN2A_Y730_A727T] | 1.97 | 1.68 | 2.05 | 0.827 | 0.991 | 16.9 | 1.65 | 7.61 | 8.1 | 1.4 | 2.94 | 7.38 | 7.94 | 0.785 | 0.921 | 0.767
NTDETYCIDNE [TUBB2B_Y200] | 1.47 | 0.813 | 0.797 | 0.64 | 1.14 | 0.724 | 1.57 | 0.795 | 0.728 | 1.53 | 0.598 | 0.982 | 0.809 | 0.952 | 0.781 | 0.544
LKRIAYFLCLR [LGI1_Y21_L26R] | 0.997 | 0.372 | 0.413 | 0.365 | 0.601 | 0.435 | 1.06 | 0.399 | 0.37 | 0.949 | 0.359 | 0.708 | 0.341 | 0.841 | 0.652 | 0.583
PLQKIYNYNVL [SLC4A1_Y553_T552I] | 0.585 | 0.773 | 1.05 | 0.514 | 1.04 | 0.582 | 1 | 0.409 | 0.564 | 1.05 | 1.09 | 0.748 | 1.32 | 0.807 | 0.638 | 1.54
IGVGSYSVCKR [RPS6KA3_Y433] | 0.716 | 0.369 | 0.412 | 0.354 | 0.496 | 0.385 | 0.878 | 0.317 | 0.383 | 0.618 | 0.445 | 0.53 | 0.362 | 0.867 | 0.88 | 0.938
FQLENYCNGGG [INS_Y108_YF] | 1.34 | 0.677 | 0.458 | 0.601 | 0.72 | 0.364 | 1.41 | 0.878 | 0.619 | 2.44 | 0.45 | 1.76 | 0.736 | 1.29 | 0.674 | 1.18
KLFFIYTPGTT [SLC27A4_Y245_S247P_YF] | 1.49 | 0.637 | 0.675 | 0.553 | 0.877 | 0.521 | 1.49 | 0.447 | 0.509 | 1.45 | 0.363 | 0.848 | 0.46 | 0.598 | 0.565 | 0.39
IRTIDYRYTVC [IDS_Y497_W502C] | 0.965 | 0.653 | 0.52 | 0.555 | 0.754 | 0.572 | 1.02 | 0.51 | 0.561 | 0.965 | 0.478 | 0.65 | 0.461 | 0.884 | 0.948 | 2.77
DRLASYLEKVR [KRT13_Y118] | 0.736 | 0.372 | 0.399 | 0.393 | 0.384 | 0.424 | 0.677 | 0.366 | 0.375 | 0.616 | 0.424 | 0.451 | 0.412 | 0.93 | 0.676 | 0.423
GLAELYEFKKK [CKAP5_Y1854_YF] | 0.534 | 0.307 | 0.348 | 0.487 | 0.48 | 0.43 | 0.705 | 0.554 | 0.559 | 0.619 | 0.381 | 0.451 | 0.665 | 2.2 | 0.864 | 0.533
